Where “and” joins values, the source holds several entries; their conditions need not be identical. Equal values may be shown once.
How the values were obtained:
[1] = target: T1, human CC-chemokine receptor 2 (CCR2) as naturally expressed on THP-1 cells, THP-1 cell membranes, fresh human … (human, UniProt P41597 1-374); assay: competition with 0.1 nM [125I]MCP-1 on fresh human PBMC, filtration and scintillation counting
T1 construct: whole, on cells; In one assay membranes of THP-1 cells were used instead of whole cells; also called CKR-2; MCP-1RA
T1 sequence (P41597 whole entry): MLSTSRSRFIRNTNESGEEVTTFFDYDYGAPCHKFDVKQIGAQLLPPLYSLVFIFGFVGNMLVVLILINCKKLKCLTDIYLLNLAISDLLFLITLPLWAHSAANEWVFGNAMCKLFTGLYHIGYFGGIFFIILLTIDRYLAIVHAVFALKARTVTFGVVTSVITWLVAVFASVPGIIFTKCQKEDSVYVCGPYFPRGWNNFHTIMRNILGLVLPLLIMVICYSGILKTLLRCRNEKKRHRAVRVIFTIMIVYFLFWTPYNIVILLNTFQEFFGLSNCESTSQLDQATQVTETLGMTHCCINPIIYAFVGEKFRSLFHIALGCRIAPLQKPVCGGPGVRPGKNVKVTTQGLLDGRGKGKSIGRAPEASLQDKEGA

[2] = target: T1, human CC-chemokine receptor 2 (CCR2) as …; assay: competition with 0.1 nM [125I]MCP-1 on THP-1 cell membranes, filtration and scintillation counting

B1: murine monoclonal antibody LS132.1D9 (1D9) (antibody, V domains shown)
VH: EVQLVESGGGLVQPKGSLKLSCAASGFSFNAYAMNWVRQAPGKGLEWVARIRTKNNNYATYYADSVKDRYTISRDDSESMLFLQMNNLKTEDTAMYYCVTFYGNGVWGTGTTVTVSS
VL: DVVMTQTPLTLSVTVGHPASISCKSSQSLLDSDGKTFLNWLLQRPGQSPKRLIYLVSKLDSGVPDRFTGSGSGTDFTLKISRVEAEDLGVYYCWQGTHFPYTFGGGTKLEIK
notes: Whole mouse monoclonal antibody from a hybridoma (supernatant or antibody); Kappa light chain; The controls are called isotype-matched and murine IgG2a, which implies IgG2a; also called mAb 1D9; mus-1D9
IC50 [1]: 0.04 µg/mL and ~0.2 nM | IC50 [2]: ~0.004 µg/mL and ~0.02 nM
